The target in test [1] is T1, nucleoid occlusion protein Noc (wild type) (B. subtilis, UniProt P37524 1-283).
T1 construct: Nucleoid occlusion protein Noc, a ParB-like protein of B. subtilis; In the microscopy with FtsZ the legends say only 'Noc'; part of it may have been the KCK-tagged, Atto488-labelled form; also called WT Noc; wildtype Noc; source: E. coli Rosetta (DE3), purified (HisTrap, Heparin HP, Superdex-75)
T1 sequence (looked up): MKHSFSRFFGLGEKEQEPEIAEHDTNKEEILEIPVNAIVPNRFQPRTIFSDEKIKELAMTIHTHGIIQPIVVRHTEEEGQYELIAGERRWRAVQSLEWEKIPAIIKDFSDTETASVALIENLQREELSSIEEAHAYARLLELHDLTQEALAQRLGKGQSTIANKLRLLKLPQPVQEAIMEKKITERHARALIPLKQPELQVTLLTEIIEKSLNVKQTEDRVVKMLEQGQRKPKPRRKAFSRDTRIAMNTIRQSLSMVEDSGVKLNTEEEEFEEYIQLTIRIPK
The test is described as follows: recruitment to GUV membranes (confocal microscopy); 3 µM unlabelled WT Noc added to Atto488-Noc R89A and GUVs (70:30 POPC:POPG); the mutant alone at 4 µM with 1 mM CTP and 1.5 µM dsNBS does not bind the GUV. Conditions: both partners purified.

The target in test [2] is T2, nucleoid occlusion protein Noc (wild type) (Bacillus subtilis (strain 168), UniProt P37524).
T2 chain: T1 sequence (looked up)
The test is described as follows: QCM-D on SLB; FtsZ GTPase assay; non-phase-separated Noc; FtsZ is up-concentrated only in Noc condensates.

For test [3], the target named is T2, nucleoid occlusion protein Noc (wild …). Put plainly: MST; non-phase-separated Noc; labelled FtsZ strongly partitions into Noc condensates once Noc phase separates.

Numbering of substitutions follows the chain as printed. In names and notes the source's numbering stands.

B1: Atto488-Noc R89A (non-CTP-binding mutant, KCK-tagged, labelled) (natural protein, B. subtilis, UniProt P37524 1-283, looked up)
chain: T1 sequence (looked up) with R89A
modifications: Atto488 maleimide on cysteine (KCK tag)
notes: Nucleoid occlusion protein Noc of B. subtilis with R89A; Labelling efficiency of ~20% is told for KCK-tagged Noc
For B1, the binding result in test [1] is “binds”.

B2: B. subtilis FtsZ (protein)
chain: MLEFETNIDGLASIKVIGVGGGGNNAVNRMIENEVQGVEYIAVNTDAQALNLSKAEVKMQIGAKLTRGLGAGANPEVGKKAAEESKEQIEEALKGADMVFVTAGMGGGTGTGAAPVIAQIAKDLGALTVGVVTRPFTFEGRKRQLQAAGGISAMKEAVDTLIVIPNDRILEIVDKNTPMLEAFREADNVLRQGVQGISDLIATPGLINLDFADVKTIMSNKGSALMGIGIATGENRAAEAAKKAISSPLLEAAIDGAQGVLMNITGGTNLSLYEVQEAADIVASASDQDVNMIFGSVINENLKDEIVVTVIATGFIEQEKDVTKPQRPSLNQSIKTHNQSVPKREPKREEPQQQNTVSRHTSQPADDTLDIPTFLRNRNKRG
B2: the binding result in test [2] is recorded as “no binding”.

B3: B. subtilis FtsZ labelled with Alexa-Fluor 647 NHS ester (protein)
chain: B2 chain
modifications: Alexa-Fluor 647 NHS ester
Regarding B3, the binding result in test [3] is given as “no binding”.

These data come from article PMC9606368, “Membrane mediated phase separation of the bacterial nucleoid occlusion protein Noc” (Scientific Reports, 2022).
